Reference: FireProtDB (doi:10.1021/acs.biochem.7b01284)
“And” between values parts separate entries of the source, which are not always exact repeats. Equal values may be shown once.

B1: Geranylgeranylglyceryl phosphate synthase, O26652 (parent)
chain: MKVEDYFHDILRERKIHLTLIDPEEQTPEEAVEIARAAIRGGTDGIMLGGSTTDSSELDNTARALRENIDVPIILFPGNTTGVSRYADAIFFMSLLNSTNPYWIIGAQALGAATVKKMGIEALPMGYLVVEPGGTVGWVGDTKPVPRNKPDIAAAYAMAAEFLGMRLFYLEAGSGAPEHVPEEMIALVKRCTDQILIVGGGIRSGEDAARVAGAGADVVVTGTVVENSDNVEDKIREIVEGMGSV

Variants of: B1
Conditions: Methanothermobacter thermautotrophicus (strain ATCC 29096 / DSM 1053 / JCM 10044 / NBRC 100330 / Delta H); pH 7.5; Thermal; DSF; potassium phosphate buffer; reversible: no; structure 4MM1; whole UniProt chain shown

| Variant | Tm [°C] |
| --- | --- |
| MKVEDYFHDILRERKIHLTLIDPEEQTPEEAVEIARAAIRGGTDGIMLGGSTTDSSELDNTARALRENIDVPIILFPGNTTGVSEYADAIFFMSLLNSTNPYWIIGAQALGAATVKKMGIEALPMGYLVVEPGGTVGWVGDTKPVPRNKPDIAAAYAMAAEFLGMRLFYLEAGSGAPEHVPEEMIALVKRCTDQILIVGGGIRSGEDAARVAGAGADVVVTGTVVENSDNVEDKIREIVEGMGSV [R85E] | 53.9 |
| MKVEDYFHDILRERKIHLTLIDPEEQTPEEAVEIARAAIRGGTDGIMLGGSTTDSSELDNTARALRENIDVPIILFPGNTTGVSRYADAIFFMSLLNSTNPYWIIGAQALGAATVKKMGIEALPMGYLVVEPGGTVGWVGDTAPVPRNKPDIAAAYAMAAEFLGMRLFYLEAGSGAPEHVPEEMIALVKRCTDQILIVGGGIRSGEDAARVAGAGADVVVTGTVVENSDNVEDKIREIVEGMGSV [K143A] | 66 |
| MKVEDYFHDILRERKIHLTLIDPEEQTPEEAVEIARAAIRGGTDGIMLGGSTTRSSELDNTARALRENIDVPIILFPGNTTGVSRYADAIFFMSLLNSTNPYWIIGAQALGAATVKKMGIEALPMGYLVVEPGGTVGWVGDTKPVPRNKPDIAAAYAMAAEFLGMRLFYLEAGSGAPEHVPEEMIALVKRCTDQILIVGGGIRSGEDAARVAGAGADVVVTGTVVENSDNVEDKIREIVEGMGSV [D54R] | 52.2 |

Same assay, conditions: Methanothermobacter thermautotrophicus (strain ATCC 29096 / DSM 1053 / JCM 10044 / NBRC 100330 / Delta H); pH 7.5; Thermal; DSC; potassium phosphate buffer; reversible: no; structure 4MM1; whole UniProt chain shown

| Variant | Tm [°C] | unfolding enthalpy (calorimetric) |
| --- | --- | --- |
| MKVEDYFHDILRERKIHLTLIDPEEQTPEEAVEIARAAIRGGTDGIMLGGSTTDSSELDNTARALRENIDVPIILFPGNTTGVSRYADAIFFMSLLNSTNPYWIIGAQALGAATVKKMGIEALPMGYLVVEPGGTVGWVGDTKPVPRNKPDIAAAYAMEAEFLGMRLFYLEAGSGAPEHVPEEMIALVKRCTDQILIVGGGIRSGEDAARVAGAGADVVVTGTVVENSDNVEDKIREIVEGMGSV [A159E] | 64 | 173 kcal/mol |
| MKVEDYFHDILRERKIHLTLIDPEEQTPEEAVEIARAAIRGGTDGIMLGGSTTDSSELDNTARALRENIDVPIILFPGNTTGVSRYADAIFFMSLLNSTNPYWIIGAQALGAATVKKMGIEALPMGYLVVEPGGTVGAVGDTKPVPRNKPDIAAAYAMAAEFLGMRLFYLEAGSGAPEHVPEEMIALVKRCTDQILIVGGGIRSGEDAARVAGAGADVVVTGTVVENSDNVEDKIREIVEGMGSV [W138A] | – | 106 kcal/mol and 78.2 kcal/mol |
| MKVEDYFHDILRERKIHLTLIDPEEQTPEEAVEIARAAIRGGTDGIMLGGSTTDSSELDNTARALRENIDVPIILFPGNTTGVSRYADAIFFMSLLNSTNPYWIIGAQALGAATVKKMGIEALPMGYLVVEPGGTVGWVGDTAPVPRNKPDIAAAYAMAAEFLGMRLFYLEAGSGAPEHVPEEMIALVKRCTDQILIVGGGIRSGEDAARVAGAGADVVVTGTVVENSDNVEDKIREIVEGMGSV [K143A] | – | 100 kcal/mol |
| MKVEDYFHDILRERKIHLTLIDPEEQTPEEAVEIARAAIRGGTDGIMLGGSTTRSSELDNTARALRENIDVPIILFPGNTTGVSRYADAIFFMSLLNSTNPYWIIGAQALGAATVKKMGIEALPMGYLVVEPGGTVGWVGDTKPVPRNKPDIAAAYAMAAEFLGMRLFYLEAGSGAPEHVPEEMIALVKRCTDQILIVGGGIRSGEDAARVAGAGADVVVTGTVVENSDNVEDKIREIVEGMGSV [D54R] | – | 187 kcal/mol and 88 kcal/mol |
| MKVEDYFHDILRERKIHLTLIDPEEQTPEEAVEIARAAIRGGTDGIMLGGSTTDSSELDNTARALRENIDVPIILFPGNTTGVSRYADAIFFMSLLNSTNPAWIIGAQALGAATVKKMGIEALPMGYLVVEPGGTVGWVGDTKPVPRNKPDIAAAYAMAAEFLGMRLFYLEAGSGAPEHVPEEMIALVKRCTDQILIVGGGIRSGEDAARVAGAGADVVVTGTVVENSDNVEDKIREIVEGMGSV [Y102A] | – | 104 kcal/mol and 108 kcal/mol |
